Measurements reported in patent US20200330603A1, “PEPTIDES FOR RENAL THERAPY” (FRED HUTCHINSON CANCER RESEARCH CENTER, priority 2015, published 2020).
“And” between values parts separate entries of the source, which are not always exact repeats. Equal entries are not always repeated.

Tests used:
[1] = Accumulation of 14C-methylated peptide in renal tissue (Example 3); assay type: in vivo, mice; conditions: 14C autoradiography, iv 30-100 nmol per mouse; 3 hours and 24 hours
Method: This example describes accumulation of peptides of this disclosure in renal tissue. ^14C-methylated knotted peptides were intravenously dosed into mice at 30-100 nmol per mouse. […] Cryosectioning was performed on a Bright-Hacker cryotome, taking 40 μm sagittal sections. Collected sections were allowed to freeze dry at −20° C. for 48-72 hours before being exposed to phosphor imager plates. Plates were exposed for 7 days then scanned on a RayTest CR-Bio35 scanner. Analysis was performed with AIDA WBA analysis software.

[2] = Fluorescent peptide delivery to kidneys, whole body fluorescence analysis; assay type: in vivo; conditions: 10 nmol iv, average and standard deviation from two mice
Method: This example illustrates fluorescent peptide delivery to kidneys. Peptides were labeled by reaction with NHS esters of Cy5.5 or AlexaFluor 647 (AF647). For comparison, the free […] NHS esters were hydrolyzed to produce unreactive Cy5.5-COOH and AF647-COOH. A dose of 10 nmol of dye-labeled peptide or dye alone was administered intravenously and fluorescence was measured at 3 hours, 24 hours, and 48 hours after administration. At each time point, mice were frozen and sectioned for whole body fluorescence analysis, which was performed by scanning the sections on the Odyssey 2.1 at 84 um resolution using the 700 channel.
Average and standard deviation are presented from two mice per group.

[3] = Peptide stability to a reducing agent (DTT), RP-HPLC; assay type: physicochemical; conditions: 10 mM DTT in PBS, room temperature, 30 minutes
Method: (§1) This example describes peptide stability in the presence of pepsin, trypsin, a reducing agent, or elevated temperature. Peptides were first suspended in 500 µl of ddH2O to a stock concentration of 2 mg/ml. […] These reactions were then quenched with 5 μg of soybean trypsin inhibitor (I) and, in some cases, 10 mM dithiothreitol (DTT). […] Temperature stability was tested by incubating peptides in non-reducing conditions at 70° C. for 1 hour. Stability was evaluated by RP-HPLC.

[4] = Blood urea nitrogen (BUN) assay in plasma, renal biocompatibility (Example 4); assay type: in vivo, mice; conditions: 100 nmol per mouse intravenously, after 24 hours, one value per mouse
Method: This example describes renal biocompatibility of peptides of this disclosure. The peptides of SEQ ID NO: 18, SEQ ID NO: 20, SEQ ID NO: 21, SEQ ID NO: 26, SEQ ID NO: 36, SEQ ID NO: 39, SEQ ID NO: 45 and SEQ ID NO: 53 were intravenously dosed into mice at 100 nmol per mouse. After 24 hours, mice were anesthesized with Ketamine-Xylazine and euthanized. Plasma and kidneys were removed as quickly as possible after euthanization. A blood urea nitrogen (BUN) assay was performed to assess renal toxicity with a commercially available kit.
The average BUN concentration in plasma for naïve mice was 25 mg/dL, with a standard error of 2 mg/dL. The average BUN concentration in plasma for peptide-dosed mice was 21, with a standard error of 1 mg/dL.

trypsin = test: Peptide stability in the presence of trypsin, RP-HPLC; assay type: in vitro ADME; conditions: 5 μg trypsin, pH 7.0, 30 minutes at 37.5° C.
Method: as §1

[5] = Plasma creatinine, Jaffe reaction method (Example 14); assay type: in vivo, mice; conditions: 100 nmol iv
Method: (§2) This example illustrates assessment of renal injury by peptides of this disclosure. Mice were injected intravenously at a dose of 100 nmol, which is approximately 16 mg/kg. PBS was administered as a negative control. At 24 hours post-peptide administration, mice were euthanized and plasma blood urea nitrogen (BUN) and plasma creatinine were measured. The blood urea nitrogen (BUN) assay was performed to assess renal toxicity with a commercially available kit. Plasma creatinine concentrations were determined using the colorimetrically corrected Jaffe reaction method. Additionally, the kidneys from these mice were removed, sectioned, and stained using periodic acid Schiff (PAS). […] Histological analysis corroborated the mRNA/protein data.

[6] = Kidney histology, periodic acid Schiff (PAS) stain; assay type: in vivo, mice; conditions: 24 hours after intravenous administration of 100 nmol
Method: as §2

[7] = Plasma BUN, assessment of renal injury (Example 14); assay type: in vivo, mice
Method: as §2

pepsin = test: Peptide stability in the presence of pepsin, RP-HPLC; assay type: in vitro ADME; conditions: 20 μg pepsin, pH 1.05, 30 minutes at 37.5° C.
Method: as §1

NGAL mRNA = test: Stress-induced mRNA by RT-PCR, NGAL; assay type: in vivo, mice; conditions: four hours post-peptide administration
Method: (§3) At four hours post-peptide administration, potential renal injury was assessed by measuring three stress-induced mRNAs (MCP-1, NGAL, and TNFa).

TNFa mRNA = test: Stress-induced mRNA by RT-PCR, TNFa; assay type: in vivo, mice; conditions: four hours post-peptide administration
Method: as §3

MCP-1 mRNA = test: Stress-induced mRNA by RT-PCR, MCP-1; assay type: in vivo, mice; conditions: four hours post-peptide administration
Method: as §3

HO-1 mRNA = test: mRNA by RT-PCR, HO-1; assay type: in vivo, mice; conditions: four hours post-peptide administration
[8] = Whole body autoradiography of 14C labeled peptides, renal cortex and blood; assay type: in vivo, mice
Description: This example describes radiolabeling of peptides of this disclosure. Several knotted peptides were radiolabeled by reductive methylation with ^14C formaldehyde and sodium cyanoborohydride with standard techniques. The sequences were engineered to have the amino acids, “G” and “S” at the N terminus. See Methods in Enzymology V91:1983 p. 570 and JBC 254(11):1979 p. 4359. An excess of formaldehyde was used to ensure complete methylation (dimethylation of every free amine). The labeled peptides were isolated via solid-phase extraction on Strata-X columns (Phenomenex 8B-S100-AAK), rinsed with water with 5% methanol, and recovered in methanol with 2% formic acid. Solvent was subsequently removed in a blowdown evaporator with gentle heat and a stream of nitrogen gas. The final product was verified and characterized by high performance liquid chromatography (HPLC).
This example illustrates accumulation of peptides of the present disclosure in kidneys measured by whole body autoradiography. Peptides of the present disclosure were radiolabeled as described in EXAMPLE 2. 100 nmol of ^14C labeled peptides were administered intravenously in mice. Radiolabeled peptide signal was quantified in the renal cortex and blood from the ventricle in 2-3 sections per mouse in 2 mice total. Whole body autoradiography analysis was performed with AIDA.
SEQ ID NO: 55 and SEQ ID NO: 119 ([…]), a linearized version of SEQ ID NO: 55, were radiolabeled with ^14C as described in EXAMPLE 2 and administered intravenously in mice at a dose of 100 nmol. Radiolabeled peptide signal was quantified in the renal cortex and blood from the ventricle in 2-3 sections per mouse in 2 mice total. Whole body autoradiography analysis was performed with AIDA.

[9] = Table 3, 24 hours post-peptide administration
[10] = Table 3, 100 nmol iv (approximately 16 mg/kg), 24 hours post-peptide administration

Compound | Reduction [3] | Peptide BUN [4] | Trypsin (trypsin) | Plasma Creatinine [5, 9] [mg/dL] | renal physiology (PAS histology, FIG. 24) [6] | Plasma BUN [7, 10] [mg/dL] | also measured
CNCCC(Oc1ccc(C(F)(F)F)cc1)c1ccccc1 (centres unmarked) [fluoxetine, reference compound] | – | – | – | – | – | – | renal signal pattern [1]: non-interactive passage through the kidneys
Cy5.5 | – | – | – | – | – | – | Fluorescence Signal in Kidneys 3 hours ([2]; 3 hours): 416 ± 170; Fluorescence Signal in Kidneys 24 hours ([2]; 24 hours): 88 ± 8; Fluorescence Signal in Kidneys 48 hours ([2]; 48 hours): 58 ± 11
GSGDCLPHLKRCKENNDCCSKKCKRRGANPEKRCR [SEQ ID NO: 18] | Partially Resistant | 21 mg/dL and 18 mg/dL | Partially Resistant | 0.43 | normal renal physiology | 19.5 | –
GSQDKCKKVYENYPVSKCQLANQCNYDCKLDKHARSGECFYDEKRNLQCICDYCEY [SEQ ID NO: 39] | Not Resistant | 23 mg/dL and 18 mg/dL | Partially Resistant | 0.32 | normal renal physiology | 20.5 | –
GSQFTDVKCTGSKQCWPVCKQMFGKPNGKCMNGKCRCYS [SEQ ID NO: 26] | Not Resistant | 19 mg/dL | Partially Resistant | 0.33 | normal renal physiology | 19 | –
GSQFTNVSCTTSRECWSVCQRLHNTSRGRCMNRRCRCYS [SEQ ID NO: 5] | Resistant | – | Resistant | – | – | – | Pepsin (pepsin): Resistant; mNGAL/GAPDH (NGAL mRNA): 1.76; mTNFa/GAPDH (TNFa mRNA): 2.55; mMCP-1/GAPDH (MCP-1 mRNA): 0.79; Plasma Creatinine ([5]; Table 4, time not stated for this column (mRNAs at four hours)): 0.23 mg/dL; mHO-1/GAPDH (HO-1 mRNA): 0.62; Signal ratio Kidney:Blood (3 hours) ([8]; renal cortex vs blood from the ventricle, 100 nmol iv, 3 hours): 27.2; Signal ratio Kidney:Blood (24 hours) ([8]; renal cortex vs blood from the ventricle, 100 nmol iv, 24 hours): 6.4; Pixel density-Bkg/area (3 hours) ([8]; renal cortex, 100 nmol 14C labeled peptide iv, 3 hours): 1.40E+07; Pixel density-Bkg/area (24 hours) ([8]; renal cortex, 100 nmol 14C labeled peptide iv, 24 hours): 1.81E+06; Plasma BUN ([7]; Table 4, 100 nmol iv, time not stated for this column (mRNAs at four hours)): 23 mg/dL
